The results in this text go back to PMC9526445.

The assay concerns the target SpPks1 (sea urchin polyketide synthase, Strongylocentrotus purpuratus) (Strongylocentrotus purpuratus). The experiment in a line: SEC. For orientation: SEC sorts molecules by how far they enter the pores of the column.

Broadly, the stoichiometry N is a count of units in the complex or per binding partner. In turn, “SpPks1 (sea urchin polyketide synthase, Strongylocentrotus purpuratus) (enzyme)” came in with a stoichiometry N of 2.
